From PMC10397244, “BIK1 protein homeostasis is maintained by the interplay of different ubiquitin ligases in immune signaling” (Nature Communications, 2023)

Key:
Assay in all cases: pull-down; GST fusion protein or GST immobilised on GSH beads, incubated with purified recombinant protein; 20 mM Tris-HCl pH 7.5, 150 mM NaCl, 3 mM EDTA, 0.5% Triton X-100, 4 C, 2 h; immunoblot
Details in all cases: both partners purified
[1] = target: T1, RGLG2 (recombinant, in vitro; tag of the experiment not told) (Arabidopsis thaliana, UniProt Q9LY87 1-468)
T1 construct: RGLG2, Arabidopsis; CDS subcloned into His-, GST- or MBP-tag vectors; also called RING DOMAIN LIGASE 2; source: E. coli BL21, purified
T1 sequence (looked up): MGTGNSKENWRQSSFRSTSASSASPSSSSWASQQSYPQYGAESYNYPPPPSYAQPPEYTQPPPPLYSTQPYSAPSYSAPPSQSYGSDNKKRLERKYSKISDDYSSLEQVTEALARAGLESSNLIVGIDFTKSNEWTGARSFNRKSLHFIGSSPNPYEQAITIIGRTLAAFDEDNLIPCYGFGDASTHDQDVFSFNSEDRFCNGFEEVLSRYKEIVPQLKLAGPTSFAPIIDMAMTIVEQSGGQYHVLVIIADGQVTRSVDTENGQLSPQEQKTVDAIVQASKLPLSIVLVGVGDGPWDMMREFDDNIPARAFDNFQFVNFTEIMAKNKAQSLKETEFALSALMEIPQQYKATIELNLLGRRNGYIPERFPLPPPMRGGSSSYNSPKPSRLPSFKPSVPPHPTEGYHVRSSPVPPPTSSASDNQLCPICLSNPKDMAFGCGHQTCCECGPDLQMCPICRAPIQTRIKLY

His-FLAG-RGLG1 = target: T2, His-FLAG-RGLG1 (Arabidopsis thaliana, UniProt Q9SS90 1-489)
T2 construct: RGLG1, Arabidopsis; CDS subcloned into modified pET28a; also called RING DOMAIN LIGASE 1; source: E. coli BL21, purified (Ni-NTA); not shown: FLAG, N-terminal, kept
T2 sequence (looked up): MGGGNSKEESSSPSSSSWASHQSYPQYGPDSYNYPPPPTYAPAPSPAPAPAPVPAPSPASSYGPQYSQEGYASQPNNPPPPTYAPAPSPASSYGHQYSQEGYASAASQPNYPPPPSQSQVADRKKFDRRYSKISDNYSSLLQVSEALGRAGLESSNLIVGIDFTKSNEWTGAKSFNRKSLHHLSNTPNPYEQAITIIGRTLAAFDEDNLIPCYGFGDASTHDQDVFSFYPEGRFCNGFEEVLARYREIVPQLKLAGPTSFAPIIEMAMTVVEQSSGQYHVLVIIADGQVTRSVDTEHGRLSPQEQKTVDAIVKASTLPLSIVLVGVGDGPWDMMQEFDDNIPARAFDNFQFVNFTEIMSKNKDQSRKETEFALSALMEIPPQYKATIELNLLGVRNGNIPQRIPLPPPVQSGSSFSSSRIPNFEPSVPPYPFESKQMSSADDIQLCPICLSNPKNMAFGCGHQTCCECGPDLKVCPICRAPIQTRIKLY

GST-RGLG2 = target: T3, GST-RGLG2 (Arabidopsis thaliana, UniProt Q9LY87 1-468)
T3 construct: RGLG2, Arabidopsis; CDS subcloned into a GST-tag vector; also called RING DOMAIN LIGASE 2; source: E. coli BL21 (recombinant); immobilised on GSH beads; not shown: GST, N-terminal, kept
T3 sequence (looked up): T1 sequence (looked up)

[2] = target: T4, RGLG1 (recombinant, in vitro; tag of the experiment not told) (Arabidopsis thaliana, UniProt Q9SS90 1-489)
T4 construct: RGLG1, Arabidopsis; CDS subcloned into His-, GST- or MBP-tag vectors; also called RING DOMAIN LIGASE 1; source: E. coli BL21, purified
T4 sequence (looked up): T2 sequence (looked up)

B1: GST-BIK1 (natural protein, Arabidopsis thaliana, UniProt O48814 1-395, looked up)
chain: MGSCFSSRVKADIFHNGKSSDLYGLSLSSRKSSSTVAAAQKTEGEILSSTPVKSFTFNELKLATRNFRPDSVIGEGGFGCVFKGWLDESTLTPTKPGTGLVIAVKKLNQEGFQGHREWLTEINYLGQLSHPNLVKLIGYCLEDEHRLLVYEFMQKGSLENHLFRRGAYFKPLPWFLRVNVALDAAKGLAFLHSDPVKVIYRDIKASNILLDADYNAKLSDFGLARDGPMGDLSYVSTRVMGTYGYAAPEYMSSGHLNARSDVYSFGVLLLEILSGKRALDHNRPAKEENLVDWARPYLTSKRKVLLIVDNRLDTQYLPEEAVRMASVAVQCLSFEPKSRPTMDQVVRALQQLQDNLGKPSQTNPVKDTKKLGFKTGTTKSSEKRFTQKPFGRHLV
notes: BIK1, Arabidopsis; pGEX-BIK1 (modified pGEX-6P-1); also called BIK1 fused to a GST tag; source: E. coli BL21, purified; immobilised on GSH beads; not shown: GST, N-terminal, kept
B1: binds [1]; binds (His-FLAG-RGLG1).

B2: His-FLAG-PUB25 (natural protein, Arabidopsis thaliana, UniProt Q9LT79 1-421, looked up)
chain: MPRNIEPLDLGIQIPYHFRCPISLELMQDPVTVCTGQTYDRASIESWVSIGNNTTCPVTRAPLSDFTLIPNHTLRRLIQEWCVANRSNGVERIPTPKQPADPTSVRALLSQASAITGTHVSVRSRAAALRRLRGFARDSDKNRVLIAAHNATEILIKILFSETTSSELVSESLALLVMLPITEPNQFVSISSDPGRVEFLTRLLFDSSIETRVNAAALIEIVSTGTKSADLKGSISNSESVFEGVLDLLRNPISSRRALKIGIKTLFALCSVKSTRHIAITAGAPEILIDRLAADFDRCDTERALATVELLCRTPEGCAAFGEHALTVPLLVKTILRVSDRATEYAAGALLALCTAEERWREEAAGAGVVVQLLLMVQSECTERAKKKAQKLLKLLRDSWPDYNSFANSDDFGCSSQVVPF
notes: PUB25, Arabidopsis; CDS subcloned into modified pET28a; also called PLANT U-BOX PROTEIN 25; source: E. coli BL21, purified (Ni-NTA); not shown: FLAG, N-terminal, kept
B2: binds (GST-RGLG2).

B3: PUB25 (recombinant, in vitro; tag of the experiment not told) (natural protein, Arabidopsis thaliana, UniProt Q9LT79 1-421, looked up)
chain: B2 chain
notes: PUB25, Arabidopsis; CDS subcloned into His-, GST- or MBP-tag vectors; also called PLANT U-BOX PROTEIN 25; source: E. coli BL21, purified
B3: binds [2].
